The assay has as its target Human connexin 26 protein (hCx26) (human) (UniProt P29033). In words: cryo-EM structure.

The record followed here is paper doi:10.1101/2020.08.11.243964.

Take “Human connexin 26 protein (hCx26) (from UniProt P29033) (natural protein)”: the stoichiometry N came out at 12.

One may read the stoichiometry N as the number of molecules, sites or subunits per partner or assembly.
